Molecular target: foldase protein PrsA of Staphylococcus aureus MW2 (recombinant, without signal peptide) (Staphylococcus aureus MW2)
Assay: SEC-MALS; Superdex 200 Increase 10/300; ~1 mg of protein loaded; 50 mM Tris-HCl, 150 mM NaCl, 2.5% (v/v) glycerol, pH 7.8; flow 0.4 ml/min

With “foldase protein PrsA of Staphylococcus aureus MW2 (recombinant, without signal peptide) (natural protein)” the stoichiometry N was 2.
